Experimental data reported in paper PMC3516566, “Identification of an Acinetobacter baumannii Zinc Acquisition System that Facilitates Resistance to Calprotectin-mediated Zinc Sequestration”.

Molecular target: T1, Zur (Acinetobacter baumannii ATCC 17978, UniProt V5VHH0 1-161)
T1 sequence: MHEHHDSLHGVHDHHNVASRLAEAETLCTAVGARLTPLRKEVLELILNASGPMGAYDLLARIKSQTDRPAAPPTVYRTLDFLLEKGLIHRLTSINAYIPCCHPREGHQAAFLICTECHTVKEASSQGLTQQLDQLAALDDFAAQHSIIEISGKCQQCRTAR
Assay: EMSA; 100 uM ZnCl2; Zur 0-2500 nM, DNA 250 nM; 20 mM Tris-HCl pH 8.0, 50 mM KCl, 1 mM DTT, 5% glycerol, 100 uM ZnCl2, 20 min at room temperature; 4% polyacrylamide gel
Conditions: protein: recombinant; tags: N-terminal 6xHis (pET15b), removed by thrombin; chain copies: 2; label: none (SYBR green stain); blunt

B1: znuA intragenic negative control (dsDNA)
DNA 1: GTTACAAAAATACCTAAGATTAATCGAAT
DNA 2: ATTCGATTAATCTTAGGTATTTTTGTAAC
B1: no binding.
